Where two headings read alike, the source gives them in different places. Numbered stars: 1 amine (or outer) side, 2 acyl side, 3 side chain; on linkers, the order of the positions; unused ones are H or OH. Square brackets hold non-standard residues; d marks the D form. Side chains are listed from the residue outwards. Ends that are not written are not given here. * marks the point of attachment. γGlu = O=C(O)[C@H](CCC(=O)[*:2])N[*:1]; Palmitoyl = CCCCCCCCCCCCCCCC(=O)*; Aib = CC(C)(N)C(=O)O
How the values were obtained:
Assay in all cases: cell-based or functional assay
[1] = biological target: T1, human GLP-1 receptor (human, UniProt P43220 24-463)
[2] = biological target: T2, human GIP receptor (human, UniProt P48546 22-466)
T2 sequence (looked up): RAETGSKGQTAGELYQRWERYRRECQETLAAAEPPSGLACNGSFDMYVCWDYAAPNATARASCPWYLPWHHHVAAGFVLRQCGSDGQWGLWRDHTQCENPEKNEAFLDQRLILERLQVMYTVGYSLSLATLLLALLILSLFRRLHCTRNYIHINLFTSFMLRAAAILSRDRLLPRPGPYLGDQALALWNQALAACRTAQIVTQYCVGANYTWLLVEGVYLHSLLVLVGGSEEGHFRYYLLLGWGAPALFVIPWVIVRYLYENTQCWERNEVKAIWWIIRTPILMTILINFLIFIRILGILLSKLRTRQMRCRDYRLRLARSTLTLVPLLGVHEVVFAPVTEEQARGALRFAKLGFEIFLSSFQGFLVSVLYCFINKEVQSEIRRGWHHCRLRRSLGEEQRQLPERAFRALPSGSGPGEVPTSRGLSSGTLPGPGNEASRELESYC

[3] = biological target: T3, human glucagon receptor (human, UniProt P47871 26-477)
T3 sequence (P47871 26-477): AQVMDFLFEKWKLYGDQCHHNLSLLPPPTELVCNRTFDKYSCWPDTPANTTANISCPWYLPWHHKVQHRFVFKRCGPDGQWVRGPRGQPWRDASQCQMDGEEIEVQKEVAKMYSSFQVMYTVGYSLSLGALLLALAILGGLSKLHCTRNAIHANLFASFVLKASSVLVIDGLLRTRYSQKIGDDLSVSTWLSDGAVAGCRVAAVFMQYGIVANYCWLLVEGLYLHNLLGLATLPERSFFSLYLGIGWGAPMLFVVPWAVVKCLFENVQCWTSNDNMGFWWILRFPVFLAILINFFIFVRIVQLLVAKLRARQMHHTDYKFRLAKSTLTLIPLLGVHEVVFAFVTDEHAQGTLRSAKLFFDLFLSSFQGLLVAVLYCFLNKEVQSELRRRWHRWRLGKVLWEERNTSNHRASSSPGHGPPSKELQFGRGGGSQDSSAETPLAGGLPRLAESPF

[4] = biological target: T1, human GLP-1 receptor; remark: listed apart in the source
[5] = biological target: T2, human GIP receptor; remark: listed apart in the source
[6] = biological target: T3, human glucagon receptor; remark: listed apart in the source

B1: SEQ ID NO: 33 (peptide)
peptide: H-HSQGTFTSDLSKQK([γGlu-γGlu-Palmitoyl])DEEAARLFIEWLKAGGPSSGAPPPS-NH2
- EC50 hGLP-1R [1]: 1 pM
- EC50 hGIP-1 [2]: 70.8 pM
- EC50 hGlucagon-R [3]: 1.4 pM

B2: SEQ ID NO: 27 (peptide)
peptide: H[dS]HGTFTSDLSKQK([γGlu-γGlu-Palmitoyl])EEEAARLFIEWL[Aib]K[dA]GPSSGAPPPS-NH2
modifications: N-terminus assumed
SMILES: CCCCCCCCCCCCCCCC(=O)N[C@@H](CCC(=O)N[C@@H](CCC(=O)NCCCC[C@H](NC(=O)[C@H](CCC(N)=O)NC(=O)[C@H](CCCCN)NC(=O)[C@H](CO)NC(=O)[C@H](CC(C)C)NC(=O)[C@H](CC(=O)O)NC(=O)[C@H](CO)NC(=O)[C@@H](NC(=O)[C@H](Cc1ccccc1)NC(=O)[C@@H](NC(=O)CNC(=O)[C@H](Cc1c[nH]cn1)NC(=O)[C@@H](CO)NC(=O)[C@@H](N)Cc1c[nH]cn1)[C@@H](C)O)[C@@H](C)O)C(=O)N[C@@H](CCC(=O)O)C(=O)N[C@@H](CCC(=O)O)C(=O)N[C@@H](CCC(=O)O)C(=O)N[C@@H](C)C(=O)N[C@@H](C)C(=O)N[C@@H](CCCNC(=N)N)C(=O)N[C@@H](CC(C)C)C(=O)N[C@@H](Cc1ccccc1)C(=O)N[C@H](C(=O)N[C@@H](CCC(=O)O)C(=O)N[C@@H](Cc1c[nH]c2ccccc12)C(=O)N[C@@H](CC(C)C)C(=O)NC(C)(C)C(=O)N[C@@H](CCCCN)C(=O)N[C@H](C)C(=O)NCC(=O)N1CCC[C@H]1C(=O)N[C@@H](CO)C(=O)N[C@@H](CO)C(=O)NCC(=O)N[C@@H](C)C(=O)N1CCC[C@H]1C(=O)N1CCC[C@H]1C(=O)N1CCC[C@H]1C(=O)N[C@@H](CO)C(N)=O)[C@@H](C)CC)C(=O)O)C(=O)O
- EC50 hGLP-1R [4]: 2.1 pM
- EC50 hGIP-R [5]: 3220 pM
- EC50 hGlucagon-R [6]: 55.4 pM

B3: SEQ ID NO: 7 (peptide)
peptide: H[dS]HGTFTSDLSKQK([γGlu-γGlu-Palmitoyl])DEEAARLFIEWL[Aib]AGGPSSGAPPPS-NH2
- EC50 hGLP-1R [4]: 1.5 pM
- EC50 hGIP-R [5]: 908 pM
- EC50 hGlucagon-R [6]: 9 pM
- EC50 hGLP-1R [1]: 1.5 pM
- EC50 hGIP-1 [2]: 908 pM
- EC50 hGlucagon-R [3]: 9 pM

B4: SEQ ID NO: 16 (peptide)
peptide: H[dS]QGTFTSDLSKQK([γGlu-γGlu-Palmitoyl])EEEAARLFIEWL[Aib]AGGPSSGAPPPS-NH2
modifications: N-terminus assumed
SMILES: CCCCCCCCCCCCCCCC(=O)N[C@@H](CCC(=O)N[C@@H](CCC(=O)NCCCC[C@H](NC(=O)[C@H](CCC(N)=O)NC(=O)[C@H](CCCCN)NC(=O)[C@H](CO)NC(=O)[C@H](CC(C)C)NC(=O)[C@H](CC(=O)O)NC(=O)[C@H](CO)NC(=O)[C@@H](NC(=O)[C@H](Cc1ccccc1)NC(=O)[C@@H](NC(=O)CNC(=O)[C@H](CCC(N)=O)NC(=O)[C@@H](CO)NC(=O)[C@@H](N)Cc1c[nH]cn1)[C@@H](C)O)[C@@H](C)O)C(=O)N[C@@H](CCC(=O)O)C(=O)N[C@@H](CCC(=O)O)C(=O)N[C@@H](CCC(=O)O)C(=O)N[C@@H](C)C(=O)N[C@@H](C)C(=O)N[C@@H](CCCNC(=N)N)C(=O)N[C@@H](CC(C)C)C(=O)N[C@@H](Cc1ccccc1)C(=O)N[C@H](C(=O)N[C@@H](CCC(=O)O)C(=O)N[C@@H](Cc1c[nH]c2ccccc12)C(=O)N[C@@H](CC(C)C)C(=O)NC(C)(C)C(=O)N[C@@H](C)C(=O)NCC(=O)NCC(=O)N1CCC[C@H]1C(=O)N[C@@H](CO)C(=O)N[C@@H](CO)C(=O)NCC(=O)N[C@@H](C)C(=O)N1CCC[C@H]1C(=O)N1CCC[C@H]1C(=O)N1CCC[C@H]1C(=O)N[C@@H](CO)C(N)=O)[C@@H](C)CC)C(=O)O)C(=O)O
- EC50 hGLP-1R [4]: 1.8 pM
- EC50 hGIP-R [5]: 7780 pM
- EC50 hGlucagon-R [6]: 35.4 pM
- EC50 hGLP-1R [1]: 1.8 pM
- EC50 hGIP-1 [2]: 7780 pM
- EC50 hGlucagon-R [3]: 35.4 pM

B5: SEQ ID NO: 6 (peptide)
peptide: H[dS]HGTFTSDLSKQK([γGlu-γGlu-Palmitoyl])EEEAARLFIEWL[Aib]AGGPSSGAPPPS-NH2
modifications: N-terminus assumed
SMILES: CCCCCCCCCCCCCCCC(=O)N[C@@H](CCC(=O)N[C@@H](CCC(=O)NCCCC[C@H](NC(=O)[C@H](CCC(N)=O)NC(=O)[C@H](CCCCN)NC(=O)[C@H](CO)NC(=O)[C@H](CC(C)C)NC(=O)[C@H](CC(=O)O)NC(=O)[C@H](CO)NC(=O)[C@@H](NC(=O)[C@H](Cc1ccccc1)NC(=O)[C@@H](NC(=O)CNC(=O)[C@H](Cc1c[nH]cn1)NC(=O)[C@@H](CO)NC(=O)[C@@H](N)Cc1c[nH]cn1)[C@@H](C)O)[C@@H](C)O)C(=O)N[C@@H](CCC(=O)O)C(=O)N[C@@H](CCC(=O)O)C(=O)N[C@@H](CCC(=O)O)C(=O)N[C@@H](C)C(=O)N[C@@H](C)C(=O)N[C@@H](CCCNC(=N)N)C(=O)N[C@@H](CC(C)C)C(=O)N[C@@H](Cc1ccccc1)C(=O)N[C@H](C(=O)N[C@@H](CCC(=O)O)C(=O)N[C@@H](Cc1c[nH]c2ccccc12)C(=O)N[C@@H](CC(C)C)C(=O)NC(C)(C)C(=O)N[C@@H](C)C(=O)NCC(=O)NCC(=O)N1CCC[C@H]1C(=O)N[C@@H](CO)C(=O)N[C@@H](CO)C(=O)NCC(=O)N[C@@H](C)C(=O)N1CCC[C@H]1C(=O)N1CCC[C@H]1C(=O)N1CCC[C@H]1C(=O)N[C@@H](CO)C(N)=O)[C@@H](C)CC)C(=O)O)C(=O)O
- EC50 hGLP-1R [4]: 2.6 pM
- EC50 hGIP-R [5]: 1540 pM
- EC50 hGlucagon-R [6]: 17.7 pM
- EC50 hGLP-1R [1]: 2.6 pM
- EC50 hGIP-1 [2]: 1540 pM
- EC50 hGlucagon-R [3]: 17.7 pM

B6: SEQ ID NO: 31 (peptide)
peptide: H[dS]QGTFTSDLSKQK([γGlu-γGlu-Palmitoyl])EEEAARLFIEWLKAGGPSSGAPPPS-NH2
modifications: N-terminus assumed
SMILES: CCCCCCCCCCCCCCCC(=O)N[C@@H](CCC(=O)N[C@@H](CCC(=O)NCCCC[C@H](NC(=O)[C@H](CCC(N)=O)NC(=O)[C@H](CCCCN)NC(=O)[C@H](CO)NC(=O)[C@H](CC(C)C)NC(=O)[C@H](CC(=O)O)NC(=O)[C@H](CO)NC(=O)[C@@H](NC(=O)[C@H](Cc1ccccc1)NC(=O)[C@@H](NC(=O)CNC(=O)[C@H](CCC(N)=O)NC(=O)[C@@H](CO)NC(=O)[C@@H](N)Cc1c[nH]cn1)[C@@H](C)O)[C@@H](C)O)C(=O)N[C@@H](CCC(=O)O)C(=O)N[C@@H](CCC(=O)O)C(=O)N[C@@H](CCC(=O)O)C(=O)N[C@@H](C)C(=O)N[C@@H](C)C(=O)N[C@@H](CCCNC(=N)N)C(=O)N[C@@H](CC(C)C)C(=O)N[C@@H](Cc1ccccc1)C(=O)N[C@H](C(=O)N[C@@H](CCC(=O)O)C(=O)N[C@@H](Cc1c[nH]c2ccccc12)C(=O)N[C@@H](CC(C)C)C(=O)N[C@@H](CCCCN)C(=O)N[C@@H](C)C(=O)NCC(=O)NCC(=O)N1CCC[C@H]1C(=O)N[C@@H](CO)C(=O)N[C@@H](CO)C(=O)NCC(=O)N[C@@H](C)C(=O)N1CCC[C@H]1C(=O)N1CCC[C@H]1C(=O)N1CCC[C@H]1C(=O)N[C@@H](CO)C(N)=O)[C@@H](C)CC)C(=O)O)C(=O)O
- EC50 hGLP-1R [1]: 1.3 pM
- EC50 hGIP-1 [2]: 345 pM
- EC50 hGlucagon-R [3]: 7.4 pM

B7: SEQ ID NO: 29 (peptide)
peptide: HXHGTFTSDLSKQKDEEAARLFIEWLKAGGPSSGAPPPS
modifications: D-Ser at 2; Lys 14 side chain K(γE-γE-x53) = (S)-4-Carboxy-4-((S)-4-carboxy-4-hexadecanoylamino-butyrylamino)-butyryl-; C-terminal amide
- EC50 hGLP-1R [1]: 0.9 pM
- EC50 hGIP-1 [2]: 112 pM
- EC50 hGlucagon-R [3]: 2.6 pM

B8: SEQ ID NO: 30 (peptide)
peptide: HXHGTFTSDLSKQKEEEAARLFIEWLKAGGPSSGAPPPS
modifications: D-Ser at 2; Lys 14 side chain K(γE-γE-x53) = (S)-4-Carboxy-4-((S)-4-carboxy-4-hexadecanoylamino-butyrylamino)-butyryl-; C-terminal amide
- EC50 hGLP-1R [1]: 0.8 pM
- EC50 hGIP-1 [2]: 77.8 pM
- EC50 hGlucagon-R [3]: 5.1 pM

B9: SEQ ID NO: 11 (peptide)
peptide: HSQGTFTSDLSKQK([γGlu-γGlu-Palmitoyl])DEEAARLFIEWL[Aib]AGGPSSGAPPPS-NH2
modifications: N-terminus assumed
SMILES: CCCCCCCCCCCCCCCC(=O)N[C@@H](CCC(=O)N[C@@H](CCC(=O)NCCCC[C@H](NC(=O)[C@H](CCC(N)=O)NC(=O)[C@H](CCCCN)NC(=O)[C@H](CO)NC(=O)[C@H](CC(C)C)NC(=O)[C@H](CC(=O)O)NC(=O)[C@H](CO)NC(=O)[C@@H](NC(=O)[C@H](Cc1ccccc1)NC(=O)[C@@H](NC(=O)CNC(=O)[C@H](CCC(N)=O)NC(=O)[C@H](CO)NC(=O)[C@@H](N)Cc1c[nH]cn1)[C@@H](C)O)[C@@H](C)O)C(=O)N[C@@H](CC(=O)O)C(=O)N[C@@H](CCC(=O)O)C(=O)N[C@@H](CCC(=O)O)C(=O)N[C@@H](C)C(=O)N[C@@H](C)C(=O)N[C@@H](CCCNC(=N)N)C(=O)N[C@@H](CC(C)C)C(=O)N[C@@H](Cc1ccccc1)C(=O)N[C@H](C(=O)N[C@@H](CCC(=O)O)C(=O)N[C@@H](Cc1c[nH]c2ccccc12)C(=O)N[C@@H](CC(C)C)C(=O)NC(C)(C)C(=O)N[C@@H](C)C(=O)NCC(=O)NCC(=O)N1CCC[C@H]1C(=O)N[C@@H](CO)C(=O)N[C@@H](CO)C(=O)NCC(=O)N[C@@H](C)C(=O)N1CCC[C@H]1C(=O)N1CCC[C@H]1C(=O)N1CCC[C@H]1C(=O)N[C@@H](CO)C(N)=O)[C@@H](C)CC)C(=O)O)C(=O)O
- EC50 hGLP-1R [4]: 1.2 pM
- EC50 hGIP-R [5]: 560 pM
- EC50 hGlucagon-R [6]: 5.1 pM
- EC50 hGLP-1R [1]: 1.2 pM
- EC50 hGIP-1 [2]: 560 pM
- EC50 hGlucagon-R [3]: 5.1 pM

From patent US20150322128A1 (Sanofi, published 2015)
